Reference: PMC6395706, “Unique properties of PTEN-L contribute to neuroprotection in response to ischemic-like stress” (Scientific Reports, 2019)

Legend:
[1] = molecular target: endogenous PTEN-L (mouse (endogenous in primary cortical neurons)); experiment: proximity ligation; Duolink PLA with anti-GAB2 and anti-PTEN-L antibodies in fixed, permeabilised primary neurons at DIV 9 treated with 50 µM glutamate for 60 min; proximities below 40 nm
PTEN-L:EGFP = molecular target: T1, PTEN-L:EGFP (human, UniProt P60484-2 1-576); experiment: as above; conditions: partners not purified
T1 construct: human PTEN-L (PTENα), the long translational variant of PTEN with 173 additional N-terminal residues (aa 1-173 unique, aa 174-576 shared with PTEN); gene synthesis with an ATG start codon replacing the alternative CTG start; PCR primers run from the start codon to the last codon before the spacer; A Gly-Gly-Thr-Gly-Gly spacer precedes the C-terminal EGFP; Cloned in the lentiviral transfer vector …

Molecule | fold decrease of PLA interaction complexes, glutamate against PBS [1] | fold decrease of PLA interaction complexes, glutamate against PBS (PTEN-L:EGFP)
GRB2-associated-binding protein 2 (from UniProt Q9Z1S8 1-665) (natural protein) | 3.98 fold | –
GRB2-associated-binding protein 2 (natural protein, UniProt Q9Z1S8 1-665, looked up, also called Gab2; GAB2; source: endogenous, mouse primary cortical neurons; in cytosolic or nuclear fractions, or in fixed cells) MSGGGGDDVVCTGWLRKSPPEKKLRRYAWKKRWFILRSGRMSGDPDVLEYYKNEHSKKPLRIINLNLCEQVDAGLTFNKKELQDSFVFDIKTSERTFYLVAETEADMNKWVQSICQICGFNQAEESTDSLRNLSSASHGPRSSPAEFSSSQHLLRERKSSAPSHSSQPTLFTFEPPVSSHMQPTLSTSAPQEYLYLHQCISRRTENARSASFSQGTRQKSDTAVQKLAQSNGHCINGVGGQVHGFYSLPKPSRHNTEFKDSTYDLPRSLASHGHTKSSLTGSETDNEDVYTFKMPSNTLCRELGDLLVDNMDVPTTPLSAYQIPRTFTLDKNHNAMTVATPGDSAIAPPPRPPKPSQAETSQWGSIQQRPPISENSRSVAATIPRRNTLPAMDNSRLHRASSCETYEYPARGSGESASWSAEPPGKTAVGRSNSASSDDNYVPMNPGSSTLLAMERPGDNSQSVYIPMSPGPHHFDPLGYPSTALPIHRGPSRGSEIQPPPVNRNLKPDRKAKPTPLDLRNNTVIDELPFKSPVTKSWSRINHTFNSSSSQYCRPISTQSITSTDSGDSEENYVPMQNPVSASPVPSGTNSPAPKKSTGSVDYLALDFQPGSPSPHRKPSTSSVTSDEKVDYVQVDKEKTQALQNTMQEWTDVRQSSEPSKGAKL | – | 4.61 fold
